For six molecules, binding result and IC50 results are on record in US20110014656A1 (ZymoGenetics, published 2011).

Numbering of substitutions follows the chain as printed.

Assay [1] has as its target T1, human IL-17RC, x1 splice variant, on transfected cells (human, UniProt Q8NAC3 21-791).
T1 construct: Expressed on BHK, 293F or NIH3T3 cells; also called hIL-17RC; hIL-17RC (x1)
T1 sequence: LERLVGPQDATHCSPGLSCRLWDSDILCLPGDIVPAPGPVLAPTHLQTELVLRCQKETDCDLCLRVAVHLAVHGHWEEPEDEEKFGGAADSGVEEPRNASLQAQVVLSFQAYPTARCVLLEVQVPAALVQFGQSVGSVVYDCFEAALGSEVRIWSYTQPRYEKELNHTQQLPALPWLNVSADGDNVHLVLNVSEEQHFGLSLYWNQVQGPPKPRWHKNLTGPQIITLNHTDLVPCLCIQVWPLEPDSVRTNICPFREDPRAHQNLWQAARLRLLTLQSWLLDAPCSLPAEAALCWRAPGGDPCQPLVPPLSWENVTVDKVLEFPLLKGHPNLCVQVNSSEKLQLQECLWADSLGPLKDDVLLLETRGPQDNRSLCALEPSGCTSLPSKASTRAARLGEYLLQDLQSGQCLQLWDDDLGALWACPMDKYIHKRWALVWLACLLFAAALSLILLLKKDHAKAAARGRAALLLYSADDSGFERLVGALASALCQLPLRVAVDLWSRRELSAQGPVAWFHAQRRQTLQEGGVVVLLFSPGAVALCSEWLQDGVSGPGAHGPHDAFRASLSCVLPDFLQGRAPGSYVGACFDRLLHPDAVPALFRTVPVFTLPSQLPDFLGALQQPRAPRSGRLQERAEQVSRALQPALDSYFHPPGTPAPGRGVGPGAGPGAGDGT
Put plainly: competition, cold competitor vs 125I-IL-17A on BHK hIL-17RC cells. On the procedure: Cold competitors were added in 100 fold molar excess. […] Wells were incubated on ice for 1-hour followed by two washes with PBS (Invitrogen 20012-027) and one wash with a high salt solution (1.5M NaCL, 50 mM HEPES pH 7.4). Wells were extracted with 500 ul of 0.8M NaOH for 30 min. at room temperature and counts per minute were measured in a gamma counter (Packard Cobra II A5005).

The target in the next assay is T2, human IL-17A (human, UniProt Q16552 24-155).
T2 construct: also called hIL-17A; hIL17A
T2 sequence: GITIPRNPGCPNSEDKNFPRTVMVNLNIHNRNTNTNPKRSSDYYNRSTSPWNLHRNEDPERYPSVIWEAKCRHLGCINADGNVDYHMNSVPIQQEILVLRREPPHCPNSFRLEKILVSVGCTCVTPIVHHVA
Put plainly: cell-based competition binding, FACS. How it is done: (§1) The biotinylation of the ligand allows for FACS detection using a secondary Streptavidin conjugated fluorophore. A reduction in cell bound ligand over a titration of the soluble receptor is recorded as a reduction in the mean fluorescence of the cells. Biotinylated ligands are individually pre-mixed at 1 ug/ml with titrating amounts of soluble receptor in staining media (HBSS+1% BSA+0.1% NaAzide+10 mM HEPES) in 100 ul volumes and incubated at RT for 15 minutes. A BHK cell line stably transfected with full length IL17RCx4 is prepared for ligand staining by resuspension with Versene (Invitrogen cat. 15040-066), equilibrating to 2×10e5 cells/100 ul, pelleting, and resuspension in the ligand/soluble receptor pre-mix. Stained cells are incubated at 4° for 30 minutes, washed 1× in staining media, and stained with Streptavidin-PE (BD Pharmingen cat. 554061) at a 1:100 ratio. Cells are incubated at 4° in the dark for 30 minutes, washed 2× in staining media, and re-suspended in a 1:1 ratio of staining media and Cytofix (BD Bioscience 554655). The BD LSRII Flow Cytometer or similar instrument is used for data collection and analysis. FIG. 5 depicts a standard graph. The graph was generated using the Prizm software program. The Y values represent the MFI normalized to maximum and minimum (100% and 0%) based on ligand only and no ligand/no soluble receptor control wells, and thus the percent binding of the ligand to the cells. The software calculates the IC50 for each curve.

A further assay has as its target T3, human IL-17F (human, UniProt Q96PD4 31-163).
T3 construct: also called hIL-17F; hIL17F
T3 sequence: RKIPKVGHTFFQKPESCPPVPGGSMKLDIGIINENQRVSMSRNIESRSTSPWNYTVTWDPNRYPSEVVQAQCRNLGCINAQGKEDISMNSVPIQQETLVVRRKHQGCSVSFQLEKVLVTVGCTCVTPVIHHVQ
Put plainly: cell-based competition binding, FACS. On the procedure: as §1

The target in assay [2] is T4, human IL-17RC, x4 splice variant, on transfected cells (human, UniProt Q8NAC3 21-791).
T4 construct: Expressed on 293F, BHK or NIH3T3 cells; also called hIL-17RCx4; hIL-17RCX4
T4 sequence: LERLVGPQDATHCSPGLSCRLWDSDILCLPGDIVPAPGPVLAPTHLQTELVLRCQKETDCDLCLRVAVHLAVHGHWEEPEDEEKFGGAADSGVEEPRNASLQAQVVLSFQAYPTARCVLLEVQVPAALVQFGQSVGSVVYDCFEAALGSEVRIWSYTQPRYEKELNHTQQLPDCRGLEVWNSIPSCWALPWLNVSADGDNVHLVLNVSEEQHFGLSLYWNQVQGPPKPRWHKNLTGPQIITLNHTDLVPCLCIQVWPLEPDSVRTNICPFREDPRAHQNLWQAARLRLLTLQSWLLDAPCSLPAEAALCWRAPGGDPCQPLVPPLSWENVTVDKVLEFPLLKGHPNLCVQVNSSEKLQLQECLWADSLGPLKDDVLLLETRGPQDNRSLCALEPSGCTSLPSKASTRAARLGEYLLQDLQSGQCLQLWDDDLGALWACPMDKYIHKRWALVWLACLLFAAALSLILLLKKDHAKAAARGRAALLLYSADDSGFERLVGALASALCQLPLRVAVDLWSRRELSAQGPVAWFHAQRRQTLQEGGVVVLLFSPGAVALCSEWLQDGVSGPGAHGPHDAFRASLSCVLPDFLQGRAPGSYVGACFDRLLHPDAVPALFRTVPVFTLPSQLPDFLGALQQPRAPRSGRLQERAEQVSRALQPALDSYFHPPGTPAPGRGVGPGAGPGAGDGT
Put plainly: FACS, biotinylated cytokine on transiently transfected 293F cells. An excerpt: (§2) However, the other splice variants tested either included or excluded hIL-17RC exon 12. These variants were designated hIL-17RCx1 (identical in exon composition to mouse x1 above), hIL-17RCx4 (identical in exon composition to mouse x4 above), hIL-17RCx2, and hIL-17RCx7.
For orientation: A flow cytometer gives signals particle by particle.

Assay [3] has as its target T1, human IL-17RC, x1 splice variant, on …. Described as above.
From the text: as §2

The target of assay [4] is T5, human IL-17 receptor (IL-17RA) on transfected cells (human, UniProt Q96F46 33-320).
T5 construct: it may not be the full-length receptor; also called hIL-17RA
T5 sequence: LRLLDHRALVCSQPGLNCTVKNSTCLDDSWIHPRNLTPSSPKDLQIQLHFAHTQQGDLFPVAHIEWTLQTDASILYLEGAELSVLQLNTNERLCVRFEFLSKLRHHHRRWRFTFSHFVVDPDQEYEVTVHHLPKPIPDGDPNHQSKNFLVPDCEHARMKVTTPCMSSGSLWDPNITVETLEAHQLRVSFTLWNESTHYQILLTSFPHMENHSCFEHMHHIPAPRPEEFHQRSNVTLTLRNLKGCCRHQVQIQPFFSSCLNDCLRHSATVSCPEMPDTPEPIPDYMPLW
Put plainly: FACS, biotinylated cytokine on stably transfected BHK cells.

B1: human IL-17C (ligand, UniProt Q9P0M4 19-197, looked up)
chain: HHDPSLRGHPHSHGTPHCYSAEELPLGQAPPHLLARGAKWGQALPVALVSSLEAASHRGRHERPSATTQCPVLRPEEVLEADTHQRSISPWRYRVDTDEDRYPQKLAFAECLCRGCIDARTGRETAALNSVRLLQSLLVLRRRPCSRDGSGLPTPGAFAFHTEFIHVPVGCTCVLPRSV
notes: also called hIL-17C
As for B1, the binding result in assay [1] is recorded as “no binding (tested: 100 fold molar excess)”.

B2: Variant 1390 (Fc fusion)
chain: LERLVGPQDATHCSPGLSCRLWDSDILCLPGDIVPAPGPVLAPTHLQTELVLRCQKETDCDLCLRVAVHLAVHGHWEEPEDEEKFGGAADSGVEEPRNASLQAQVVLSFQAYPTARCVLLEVQVPAALVQFGQSVGSVVYDCFEAALGSEVRIWSYTQPRYEKELNHTQQLPALPWLNVSADGDNVHLVLNVSEEQHFGLSLYWNQVQGPPKPRWHKNLTGPQIITLNHTDLVPCLCIQVWPLEPDSVRTNICPFREDPRAHQNLWQAARLRLLTLQSWLLDAPCSLPAEAALCWRAPGGDPCQPLVPPLSWENVTVDKVLEFPLLKGHPNLCVQVNSSEKLQLQECLWADSLGPLKDDVLLLETRGPQDNRSLCALEPSGCTSLPSKASTRAARLGEYLLQDLQSGQCLQLWDDDLGALWACPMDKYIHKEPKSSDKTHTCPPCPAPEAEGAPSVFLFPPKPKDTLMISRTPEVTCVVVDVSHEDPEVKFNWYVDGVEVHNAKTKPREEQYNSTYRVVSVLTVLHQDWLNGKEYKCKVSNKALPSSIEKTISKAKGQPREPQVYTLPPSRDELTKNQVSLTCLVKGFYPSDIAVEWESNGQPENNYKTTPPVLDSDGSFFLYSKLTVDKSRWQQGNVFSCSVMHEALHNHYTQKSLSLSPGK
notes: The entry may include the signal peptide; also called IL17RC 1390
What is called IC50 is the concentration that inhibits the measured activity by half. High values mean a need for much substance, low ones inhibition by little substance. Take B2: the results for the half-inhibitory concentration (IC50) with human IL-17A and with human IL-17F were 12 µg/mL and 9 µg/mL, respectively.

B3: Variant 1459 (Fc fusion)
chain: B2 chain with L1A
notes: The entry may include the signal peptide; also called IL17RC 1459
On to B3, for which the results for the IC50 in the assay with human IL-17A and with human IL-17F were 126 µg/mL and 103 µg/mL, respectively.

B4: murine IL-17F (ligand)
chain: RKNPKAGVPALQKAGNCPPLEDNTVRVDIRIFNQNQGISVPREFQNRSSSPWDYNITRDPHRFPSEIAEAQCRHSGCINAQGQEDSTMNSVAIQQEILVLRREPQGCSNSFRLEKMLLKVGCTCVKPIVHQAA
notes: also called mIL-17F; mIL17F
Regarding B4, the binding result is given as “binds” in assay [2] and “no binding” in assay [3].

B5: human IL-17E (ligand, UniProt Q9H293 33-177, looked up)
chain: YSHWPSCCPSKGQDTSEELLRWSTVPVPPLEPARPNRHPESCRASEDGPLNSRAISPWRYELDRDLNRLPQDLYHARCLCPHCVSLQTGSHMDPRGNSELLYHNQTVFYRRPCHGEKGTHKGYCLERRLYRVSLACVCVRPRVMG
notes: also called hIL-17E
As to B5, the values for the binding result in assay [4] and in assay [1] were “no binding” and “no binding (tested: 100 fold molar excess)”, respectively.

B6: human IL-17D (ligand, UniProt Q8TAD2 18-202, looked up)
chain: APRAGRRPARPRGCADRPEELLEQLYGRLAAGVLSAFHHTLQLGPREQARNASCPAGGRPADRRFRPPTNLRSVSPWAYRISYDPARYPRYLPEAYCLCRGCLTGLFGEEDVRFRSAPVYMPTVVLRRTPACAGGRSVYTEAYVTIPVGCTCVPEPEKDADSINSSIDKQGAKLLLGPNDAPAGP
notes: also called hIL-17D
As to B6, the values for the binding result in assay [4] and in assay [1] were “no binding” and “no binding (tested: 100 fold molar excess)”, respectively.
